B1: Fv-4-F1243 (antibody)
heavy: QVQLQESGPGLVKPSETLSLTCAVSGHSISHDHAWSWVRQPPGEGLEWIGFISYSGITNYNPSLQGRVTISRDNSKNTLYLQMNSLRAEDTAVYYCARSLARTTAMDYWGEGTLVTVSSASTKGPSVFPLAPSSKSTSGGTAALGCLVKDYFPEPVTVSWNSGALTSGVHTFPAVLQSSGLYSLSSVVTVPSSSLGTQTYICNVNHKPSNTKVDKKVEPKSCDKTHTCPPCPAPELRGGPKVFLFPPKPKDTLYITRTPEVTCVVVDVSHEDPEVKFNWYVDGVEVHNAKTKPREEQYNSTYRVVSVLTVLHQDWLNGKEYKCKVSNKALPAPIEKTISKAKGQPREPQVYTLPPSRDELTKNQVSLTCLVKGFYPSDIAVEWESNGQPENNYKTTPPVLDSDGSFFLYSKLTVDKSRWQQGNVFSCSVMHEALHYHVTRKELSLSP
light: DIQMTQSPSSLSASVGDSVTITCQASTDISSHLNWYQQKPGKAPELLIYYGSHLLSGVPSRFSGSGSGTDFTFTISSLEAEDAATYYCGQGNRLPYTFGQGTKVEIERTVAAPSVFIFPPSDEQLKSGTASVVCLLNNFYPREAKVQWKVDNALQSGNSQESVTEQDSKDSTYSLSSTLTLSKADYEKHKVYACEVTHQGLSSPVTKSFNRGEC
notes: L235R/S239K/M252Y/S254T/N434Y/Y436V/Q438R/S440E (EU)
B2: Fv-4-F939 (antibody, human IgG1, kappa)
heavy: B1 heavy with T256S, R440Q, E442S
light: B1 light
B3: Fv-4-F1080 (antibody, human IgG1, kappa)
heavy: B1 heavy with R237L, K241S, T256S, S426N, V438Y, R440Q, E442S
light: B1 light
notes: additional N-glycosylation found (++)
B4: Fv-4-F1083 (antibody)
heavy: B1 heavy with R237L, K241S, T256S, V438Y, R440Q, E442N
light: B1 light
B5: Fv-4-F1079 (antibody, human IgG1, kappa)
heavy: B1 heavy with R237L, K241S, T256S, E384N, N386S, V438Y, R440Q, E442S
light: B1 light
B6: Fv-4-F1081 (antibody, human IgG1, kappa)
heavy: B1 heavy with R237L, K241S, T256S, V438N, R440T, E442S
light: B1 light
notes: as for B3
B7: Fv-4-F1097 (antibody, human IgG1, kappa)
heavy: B1 heavy with R237L, K241S, T256S, G387N, P389S, V438Y, R440Q, E442S
light: B1 light
B8: Fv-4-F1078 (antibody, human IgG1, kappa)
heavy: B1 heavy with R237L, K241S, T256S, E382N, E384S, V438Y, R440Q, E442S
light: B1 light
B9: Fv-4-F1077 (antibody, human IgG1, kappa)
heavy: B1 heavy with R237L, K241S, K250N, T256S, V438Y, R440Q, E442S
light: B1 light
notes: as for B3
B10: Fv-4-F1082 (antibody, human IgG1, kappa)
heavy: B1 heavy with R237L, K241S, T256S, V438Y, R440N, E442S
light: B1 light
notes: additional N-glycosylation found (+)
B11: Fv-4-F1094 (antibody)
heavy: B1 heavy with R237L, K241S, T256S, V438Y, R440Q, E442S, S444N
light: B1 light
B12: Fv-4-F11 (antibody, human IgG1, kappa)
heavy: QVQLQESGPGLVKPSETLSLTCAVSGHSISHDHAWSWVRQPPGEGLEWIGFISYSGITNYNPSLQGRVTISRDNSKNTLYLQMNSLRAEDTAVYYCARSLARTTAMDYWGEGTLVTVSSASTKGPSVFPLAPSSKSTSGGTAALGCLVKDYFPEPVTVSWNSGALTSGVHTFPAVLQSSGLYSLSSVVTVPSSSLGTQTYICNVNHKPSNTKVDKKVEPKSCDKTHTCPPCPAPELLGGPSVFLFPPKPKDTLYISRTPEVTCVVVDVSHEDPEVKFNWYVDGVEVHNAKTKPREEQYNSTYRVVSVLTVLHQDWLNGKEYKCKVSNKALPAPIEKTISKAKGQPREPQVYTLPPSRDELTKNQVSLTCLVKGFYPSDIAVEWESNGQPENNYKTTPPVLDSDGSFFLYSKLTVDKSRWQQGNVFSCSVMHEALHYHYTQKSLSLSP
light: B1 light
notes: M252Y/N434Y (EU)
B13: Fv-4-F1095 (antibody, human IgG1, kappa)
heavy: B1 heavy with R237L, K241S, T256S, S385N, G387S, V438Y, R440Q, E442S
light: B1 light
B14: Fv-4-F1096 (antibody, human IgG1, kappa)
heavy: B1 heavy with R237L, K241S, T256S, Q388T, V438Y, R440Q, E442S
light: B1 light
B15: Fv-4-F1384 (antibody, human IgG1, kappa)
heavy: B1 heavy with R237L, K241S, Y254M, T256S, S428A, M430L, Y436S, V438Y, R440Q, E442S
light: B1 light
B16: Fv-4-F1390 (antibody, human IgG1, kappa)
heavy: B1 heavy with R237L, K241S, Y254M, T256S, M430L, Y436S, V438H, R440Q, E442S
light: B1 light
B17: Fv-4-F1383 (antibody, human IgG1, kappa)
heavy: B1 heavy with R237L, K241S, Y254M, T256S, S428R, M430L, Y436S, V438Y, R440Q, E442S
light: B1 light
B18: Fv-4-F1381 (antibody, human IgG1, kappa)
heavy: B1 heavy with R237L, K241S, Y254M, T256S, S428E, M430L, Y436S, V438Y, R440Q, E442S
light: B1 light
B19: Fv-4-F1385 (antibody, human IgG1, kappa)
heavy: B1 heavy with R237L, K241S, Y254M, T256S, S428Q, M430L, Y436S, V438Y, R440Q, E442S
light: B1 light
B20: Fv-4-F1380 (antibody, human IgG1, kappa)
heavy: B1 heavy with R237L, K241S, Y254M, T256S, S428D, M430L, Y436S, V438Y, R440Q, E442S
light: B1 light
B21: Fv-4-F1391 (antibody, human IgG1, kappa)
heavy: B1 heavy with R237L, K241S, Y254M, T256S, M430L, Y436S, V438N, R440Q, E442S
light: B1 light
B22: Fv-4-F1389 (antibody, human IgG1, kappa)
heavy: B1 heavy with R237L, K241S, Y254M, T256S, M430L, Y436S, V438T, R440Q, E442S
light: B1 light
notes: M428L/N434S/Y436T (EU)
B23: Fv-4-F1388 (antibody, human IgG1, kappa)
heavy: B1 heavy with R237L, K241S, Y254M, T256S, M430L, Y436S, V438F, R440Q, E442S
light: B1 light
B24: Fv-4-F1382 (antibody, human IgG1, kappa)
heavy: B1 heavy with R237L, K241S, Y254M, T256S, S428K, M430L, Y436S, V438Y, R440Q, E442S
light: B1 light
B25: Fv-4-F1386 (antibody, human IgG1, kappa)
heavy: B1 heavy with R237L, K241S, Y254M, T256S, S428Y, M430L, Y436S, V438Y, R440Q, E442S
light: B1 light
B26: Fv-4-F1392 (antibody, human IgG1, kappa)
heavy: B1 heavy with R237L, K241S, Y254M, T256S, M430L, Y436S, V438K, R440Q, E442S
light: B1 light
B27: F1749 (antibody)
heavy: B1 heavy with Y254M, T256S, V438T, E442D
light: B1 light
B28: F1759 (antibody)
heavy: B1 heavy with R237L, K241S, Y254M, T256S, V438T, R440K, E442D
light: B1 light
B29: F1763 (antibody)
heavy: B1 heavy with R237L, K241S, Y254M, T256S, H435D, V438T, R440K, E442D
light: B1 light
B30: F1758 (antibody)
heavy: B1 heavy with R237L, K241S, Y254M, T256S, V438T, R440K
light: B1 light
B31: F1753 (antibody)
heavy: B1 heavy with Y254M, T256S, H435D, V438T, E442D
light: B1 light
B32: F1757 (antibody)
heavy: B1 heavy with R237L, K241S, Y254M, T256S, V438T, E442D
light: B1 light
B33: F1751 (antibody)
heavy: B1 heavy with Y254M, T256S, V438T, R440K, E442D
light: B1 light
B34: F1761 (antibody)
heavy: B1 heavy with R237L, K241S, Y254M, T256S, H435D, V438T, E442D
light: B1 light
B35: F1750 (antibody)
heavy: B1 heavy with Y254M, T256S, V438T, R440K
light: B1 light
B36: F1754 (antibody)
heavy: B1 heavy with Y254M, T256S, H435D, V438T, R440K
light: B1 light
B37: F1752 (antibody)
heavy: B1 heavy with Y254M, T256S, H435D, V438T
light: B1 light
B38: F1756 (antibody)
heavy: B1 heavy with R237L, K241S, Y254M, T256S, V438T
light: B1 light

The values below come from US20140363428A1 (Chugai, published 2014).

Numbering of substitutions follows the chain as printed. In names and notes the source's numbering stands.

The target in the first assay is T1, soluble human FcRn (human, UniProt P55899 24-297; P61769 21-119).
T1 construct: Heterodimer of alpha chain and beta2-microglobulin; also called hFcRn
T1 sequence (P55899 24-297 limits assumed, chain 1 of 2): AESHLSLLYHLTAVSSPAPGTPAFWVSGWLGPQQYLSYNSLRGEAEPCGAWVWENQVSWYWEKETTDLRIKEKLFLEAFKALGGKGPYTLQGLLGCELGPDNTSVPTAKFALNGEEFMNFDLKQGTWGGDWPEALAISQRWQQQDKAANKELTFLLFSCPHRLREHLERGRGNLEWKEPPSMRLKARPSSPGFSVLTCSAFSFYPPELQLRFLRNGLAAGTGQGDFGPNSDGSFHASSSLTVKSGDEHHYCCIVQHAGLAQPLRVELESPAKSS
T1 sequence (P61769 21-119 limits assumed, chain 2 of 2): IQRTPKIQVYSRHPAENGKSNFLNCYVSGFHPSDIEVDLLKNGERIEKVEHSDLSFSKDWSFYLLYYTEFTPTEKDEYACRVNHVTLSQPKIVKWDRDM
The experiment in a line: SPR (Biacore), pH 7.0. (Surface plasmon resonance follows binding to a sensor surface in real time, without labels.)
B1 returned a Kd of 130 nM.
In the case of B2, the Kd is 150 nM. This Kd and that of the molecule before are within 1.5-fold of each other.

Another assay addresses T1, soluble human FcRn. Nature of the assay: SPR (Biacore), pH 7.0. This is another data set of the same source.
Take B3: binding was put at a Kd of 320 nM.
Same read-out and setting: for B4 the value was 350 nM; for B5, 340 nM.
Same read-out and setting: the result for B6 reads 620 nM; that for B7, 280 nM.
On the same count and under the same terms, for B8 the value was 470 nM; for B9, 2000 nM; for B10, 280 nM.
With B11, the Kd worked out at 260 nM. The Kd values of the last two molecules are within 1.5-fold of each other.
Still for that read-out and setting: the result for B12 reads 330 nM; that for B13, 290 nM; that for B14, 270 nM.

A further assay deals with T1, soluble human FcRn. The experiment in a line: SPR (Biacore), pH 6.0.
On to B15, for which binding was characterised by a dissociation constant (Kd) of 86 nM. This counts as double-digit nanomolar.
Same read-out and setting: for B16 the value was 400 nM; for B17, 160 nM; for B18, 86 nM.
Molecule B19 showed a Kd of 77 nM. The Kd values of the last two molecules are within 1.5-fold of each other.
With B20, binding was put at a Kd of 73 nM.
As to B21, binding was put at a Kd of 420 nM.
On the same count and under the same terms, for B22 the value was 68 nM; for B23, 80 nM.
For the molecule B24, the Kd is 130 nM.
Molecule B25 gave a Kd of 160 nM.
As to B26, the Kd is 270 nM.

A further assay has as its target T1, soluble human FcRn. Nature of the assay: SPR (Biacore), pH 6.0. The source holds these as a separate data set.
B27 returned a Kd of 87 nM. That is a double-digit nanomolar value.
B28 registered a Kd of 63 nM.
The molecule B29 came in with a Kd of 110 nM.
The same measure, in the same setting: for B30 the value was 70 nM; for B31, 130 nM.
On to B32, for which binding was put at a Kd of 72 nM.
With B33, the Kd was 69 nM.
As to B34, binding was characterised by a dissociation constant (Kd) of 130 nM.
B35 yielded a Kd of 70 nM.
In turn, B36 yielded a Kd of 120 nM.
Still for that read-out and setting: for B37 the value was 150 nM; for B38, 80 nM.

The term Kd denotes a measure of binding affinity in units of concentration. Read a high Kd as weaker binding.
